Experimental data taken from paper PMC12442346, “Novel regulatory mechanism of choline-O-sulfate and choline catabolism by two BetIs in Alphaproteobacteria” (Applied and Environmental Microbiology, 2025).

Experiments:
[1] = tested on: T1, BetI2 (Ruegeria pomeroyi DSS-3), ORF:6e67dd5c; assay: EMSA; settings: EMSA: 2 mM EDTA, 20 mM KCl, 0.5 mM DTT, 4% Ficoll-400, pH 8.0, 2 ug poly(dI-dC), 20 uL, protein 0-28 uM; MST: 1x PBS pH 7.4, 0.05% Tween-20, 25 C
T1 sequence: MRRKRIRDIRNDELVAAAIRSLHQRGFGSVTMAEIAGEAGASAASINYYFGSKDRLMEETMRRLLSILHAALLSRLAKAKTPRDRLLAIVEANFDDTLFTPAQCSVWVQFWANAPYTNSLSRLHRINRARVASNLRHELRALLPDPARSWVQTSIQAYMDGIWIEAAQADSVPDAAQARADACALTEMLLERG

[2] = tested on: BetI2 (Ruegeria pomeroyi DSS-3); assay: MST; settings: EMSA: 2 mM EDTA, 20 mM KCl, 0.5 mM DTT, 4% Ficoll-400, pH 8.0, 2 ug poly(dI-dC), 20 uL, protein 0-28 uM, MST: 1x PBS pH 7.4, 0.05% Tween-20, 25 C
BetI2 = biological target: T2, BetI2 (Ruegeria pomeroyi, UniProt Q5LUG8); assay: microscale thermophoresis of BetI2 binding to DNA probes with or without choline; settings: effector; DNA probes P1 (betI2 box 1) and P2 (betI2 box 2); 1x PBS pH 7.4, 0.05% Tween-20, 25 C; labelled protein
T2 construct: gene betI; full length gene in pET28a(+), C-terminal His-tag, expressed in E. coli BL21(DE3), Ni-NTA and gel filtration; RED-Tris-NTA labelled for MST
T2 sequence (Q5LUG8 1-193): T1 sequence

With “GGCCATATTGGCCAATCGGCCAAAGGGTTCAAGTTTAAAGGATTATCGAAAAACTTGAACGACTGTTCAAGTTTTGGTTCTTTTGATCAGGTTATTGTGCTAATTTCCCGCATCATTCGACCCGGCCCGGAGGAGAGGGCGGGCGTGAACCCAGGGAGGGACCATGAT (double strand) [IGR (EMSA probe)]” the binding [1] was “binds”.

P2 (IGR variant, betI2 box 2 only) gave a binding signal (affinity relative to P1 with choline) [2] of 0.5 and a binding signal ([2]; no choline, scale: reference for P1 without choline) of 1.

IGR (MST probe) gave a Kd ([2]; no choline stated) of 870 nM.

P1 (IGR variant, betI2 box 1 only) showed a binding signal (fold affinity of P1 over P2) ([2]; choline) of 2 and a binding signal (fold Kd of P1 over P2) ([2]; no choline) of 4.

For `C[N+](C)(C)CCO` [choline], the “microscale thermophoresis of BetI2 binding to DNA probes with or without choline” value (BetI2) was “The affinities of BetI2 to the IGR probe variants with or without choline were determined”.
